Interaction score data for two molecules are collected here from PMC10397247.

The target of one test is T1, O3.
T1 chain: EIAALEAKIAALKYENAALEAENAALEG
In words: two-hybrid library CC0.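 Also: natural log of median RNA to DNA barcode read ratio; higher means stronger binding.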 The note with it: mean of both orientations.

The target in another test is T2, O14.
T2 chain: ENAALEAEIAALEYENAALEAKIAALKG
Briefly: two-hybrid library CC0.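 Also: natural log of median RNA to DNA barcode read ratio; higher means stronger binding.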 The conditions noted are these: mean of both orientations.

The target in another test is T3, O9.
T3 chain: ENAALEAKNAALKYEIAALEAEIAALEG
Briefly: two-hybrid library CC0.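 Also: natural log of median RNA to DNA barcode read ratio; higher means stronger binding.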 The note with it: mean of both orientations.

A further test deals with T4, O13.
T4 chain: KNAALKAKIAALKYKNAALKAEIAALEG
Briefly: two-hybrid library CC0.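 Also: natural log of median RNA to DNA barcode read ratio; higher means stronger binding.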 The note with it: mean of both orientations.

For a further test, the target named is T5, O12.
T5 chain: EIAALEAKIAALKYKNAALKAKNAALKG
In words: two-hybrid library CC0.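 Also: natural log of median RNA to DNA barcode read ratio; higher means stronger binding.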 The conditions noted are these: mean of both orientations.

A further test deals with T6, O2.
T6 chain: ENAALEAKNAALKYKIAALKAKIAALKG
In words: two-hybrid library CC0.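 Also: natural log of median RNA to DNA barcode read ratio; higher means stronger binding.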 The note with it: mean of both orientations.

In the next test the target is T7, O7.
T7 chain: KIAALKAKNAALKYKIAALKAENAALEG
In words: two-hybrid library CC0. The note with it: mean of both orientations.

A further test concerns the target T8, O6.
T8 chain: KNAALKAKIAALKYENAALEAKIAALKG
Briefly: two-hybrid library CC0. The note with it: mean of both orientations.

A further test addresses T9, O4.
T9 chain: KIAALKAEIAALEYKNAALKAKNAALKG
Briefly: two-hybrid library CC0. The conditions noted are these: mean of both orientations.

The next test concerns the target T10, O5.
T10 chain: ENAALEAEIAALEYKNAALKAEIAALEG
Briefly: two-hybrid library CC0. The conditions noted are these: mean of both orientations.

The target of the next test is T11, O16.
T11 chain: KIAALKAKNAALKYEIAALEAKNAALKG
In words: two-hybrid library CC0. The conditions noted are these: mean of both orientations.

The target in the next test is T12, O15.
T12 chain: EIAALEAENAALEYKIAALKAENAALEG
Briefly: two-hybrid library CC0. The note with it: mean of both orientations.

The target of a further test is T13, O8.
T13 chain: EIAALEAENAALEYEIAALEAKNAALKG
Briefly: two-hybrid library CC0. The note with it: mean of both orientations.

A further test has as its target T14, 4H741-bA.
T14 chain: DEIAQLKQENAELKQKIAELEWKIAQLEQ
Briefly: two-hybrid library CCNG1.

The next test addresses T15, 4H2438-bA.
T15 chain: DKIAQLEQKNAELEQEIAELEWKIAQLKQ
Briefly: two-hybrid library CCNG1.

The target of another test is T16, 4H2223-bA.
T16 chain: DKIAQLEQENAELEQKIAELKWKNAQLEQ
In words: two-hybrid library CCNG1.

For the next test, the target named is T17, 4H2839-bA.
T17 chain: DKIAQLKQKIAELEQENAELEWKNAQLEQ
Briefly: two-hybrid library CCNG1.

In the next test the target is T18, 4H3057-bA.
T18 chain: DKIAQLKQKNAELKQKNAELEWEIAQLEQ
Briefly: two-hybrid library CCNG1.

A further test has as its target T19, 4H348-bA.
T19 chain: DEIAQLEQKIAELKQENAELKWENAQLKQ
Briefly: two-hybrid library CCNG1.

A further test concerns the target T20, 4H2692-bA.
T20 chain: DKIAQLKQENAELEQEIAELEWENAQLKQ
Briefly: two-hybrid library CCNG1.

A further test deals with T21, 4H2915-bA.
T21 chain: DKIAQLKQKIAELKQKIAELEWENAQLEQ
In words: two-hybrid library CCNG1.

In a further test the target is T22, 4H3277-bA.
T22 chain: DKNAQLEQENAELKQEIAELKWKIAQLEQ
In words: two-hybrid library CCNG1.

In the next test the target is T23, 4H40-bA.
T23 chain: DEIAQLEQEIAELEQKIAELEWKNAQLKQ
Briefly: two-hybrid library CCNG1.

Another test concerns the target T24, 4H2717-bA.
T24 chain: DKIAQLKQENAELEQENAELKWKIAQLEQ
Briefly: two-hybrid library CCNG1.

In a further test the target is T25, 4H477-bA.
T25 chain: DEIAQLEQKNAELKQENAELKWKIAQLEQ
Briefly: two-hybrid library CCNG1.

The target in the next test is T26, 4H2588-bA.
T26 chain: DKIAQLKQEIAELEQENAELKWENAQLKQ
Briefly: two-hybrid library CCNG1.

For the next test, the target named is T27, O14-bN.
T27 chain: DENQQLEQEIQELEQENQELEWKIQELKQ
Briefly: two-hybrid library CCNG1.

The next test has as its target T28, 4H2473-bA.
T28 chain: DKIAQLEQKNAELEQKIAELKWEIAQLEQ
In words: two-hybrid library CCNG1.

A further test has as its target T29, 4H2134-bA.
T29 chain: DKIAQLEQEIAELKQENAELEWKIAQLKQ
Briefly: two-hybrid library CCNG1.

In a further test the target is T30, 4H2503-bA.
T30 chain: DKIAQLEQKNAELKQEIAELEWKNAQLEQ
In words: two-hybrid library CCNG1.

The target in the next test is T31, 4H319-bA.
T31 chain: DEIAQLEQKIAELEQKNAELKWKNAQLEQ
Briefly: two-hybrid library CCNG1.

Another test addresses T32, 4H2143-bA.
T32 chain: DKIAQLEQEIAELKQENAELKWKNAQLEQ
Briefly: two-hybrid library CCNG1.

The target in a further test is T33, 4H492-bA.
T33 chain: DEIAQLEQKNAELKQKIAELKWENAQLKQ
Briefly: two-hybrid library CCNG1.

For the molecule EIAALEAKIAALKYKNAALKAKNAALKG [O12], the interaction score with O3 is 0.0458; in the test with O14, -2.03; in the test with O9 it was -2.71; in the test with O13 it was -2.79; in the test with O12 it was -2.79; with O2, -2.79. For the same molecule, the interaction score in the test with O7 was -2.84; with O6, -2.7; in the test with O4 it was -2.22; with O5, -2.71; in the test with O16, -2.78; in the test with O15 it was -2.78. This molecule came in with an interaction score with O8 of -2.29.
In the case of DKIAQLEQEIAELKQENAELEWKIAQLKQ [4H2134-bA], the interaction score with 4H741-bA was -1.46; with 4H2438-bA it was 0.819; with 4H2223-bA, -0.522; with 4H2839-bA it was 0.969; with 4H3057-bA, 2.33; in the test with 4H348-bA, -1.14. In addition, the interaction score with 4H2692-bA was -0.139; with 4H2915-bA, 1.66; with 4H3277-bA, 0.0479; with 4H40-bA it was 0.811; in the test with 4H2717-bA, -0.277; with 4H477-bA, 0.935. Besides, the interaction score with 4H2588-bA was 0.531; in the test with O14-bN, -1.45; with 4H2473-bA it was 0.432; in the test with 4H2134-bA, 1.43; with 4H2503-bA, 0.834; in the test with 4H319-bA it was -0.399. Further, the values for the interaction score with 4H2143-bA and with 4H492-bA were 1.32 and 0.114, respectively.
